This series can be described thus: label from the status in PepcDB records.
As for “MSIRLRKTVMSVLLGALLAGNLLPAQADTQDRLPDIGTTAGGTLSINQELAMGDFYVRQLRAGAPLINDPLLSDYINQLGNRLVKQADSVRTPFHFYLIRNDDINAFAFFGGNVVLHSALFRYADSESELASVLAHEISHVTQRHLARSMESQQRSAPLTWVGALGSILLAMANPQLGMAALSGTLAGAQQGMITFTQSNEQEADRIGIQVLQRAGFDPQAMPNFLQKLADQSRYASRPPEMLLTHPLPESRLSDARNRANQMRPTPVQSSQDFLFAKIRTFGMYGSPDRPLNDDLLVQWEKGNVREQLAAKYGRAIQLYQAKKYDEARNVLQPLLSSAPDNPWFLDMMTDIDLGQNRAAQAIARLQNVTGMQANPVLQLNLANAYVEGKQPAAAGKILYRYTYAHPDDPNGWDLLAQTAAAQGQRAEELAARAESLALNGQLDQSIRLLSNASSLVKLGSLEQARYDARIDQLRQLQQRFRQYQKS”, the protein production entry is given as “failed”.
On to “MSITATHDTSSKGRHALPALALLLLMTLSGCAARDMGDGTSPSLMERHATGKSLAPDAPGTPQRQGTPAAEAEAHLQRGLAYLAQDRPELAFEHFSRAASLAPEMVEPRLQRARLLVRRGMPNEAAADIEAVLAASPQHARAWELAGMVAFDRGLLDEAEADFTRAITLDPDLASCYAHLGAVHDYKGRPDLARDVYAAALVRFPQSGELHNNLGVAFSMLGDDASALHHFHEAVVLGASSERSWNNMGLALCRLGRFDEAFEAFRNAGGEAAAHNNLGYFFLVNGDASLAVQHLQRAVELEPRYYVRAAENLKRARLAARFAAGGVPVPAAGPQTGGIAGTPVNKAGVLPPATGKGPGTRTTGAGERVIQ”, for which the protein production entry is “failed”.
For the sequence “MSITRRVRLSVDTCCYEAEIAGILRPQLLKGRMSVREEFDAWAAEGKDRGMEDRHWHTAKHVLARMPVEPGDTVLDLGTGSGYALRALRDTNDAGPCYGLDGSPEMLRNAREYTDDDGIGFLRGDFDALPFATDSIDHVFSMEAFYYASDPPHTLEEIARVLRPGGTANIAVNYYEENVHSHEWQEFIDIEMTRWSADEYREAFREAGLAVAAQDTIPDREVEIPPADTFPTDEFETREAMVERYRELGTLLTVGVATE”, the protein production entry was “failed”.
Then “MSIVSISYNQEEYIREALDGFAAQRTEFPVEVIIADDASTDATPRIIGEYAARYPQLFRPILRQTNIGVHANFKDVLSAARGEYLALCEGDDYWTDPLKLSKQVKYLDRHPETTVCFHPVRVIYEDGAKDSEFPPLSWRRDLSVDALLARNFIQTNSVVYRRQPSYDDIPANVMPIDWYLHVRHAVGGEIAMLPETMAVYRRHAHGIWHSAYTDRRKFWETRGHGMAATLEAMLDLVHGHREREAIVGEVSAWVLREIGKTPGRQGRALLLKSIADHPRMTMLSLQHRWAQTPWRRFKRRLSTELSSLAALAYATRRRALEGRDGGYRETTSPPTGRGRNVRGSHA”, with “failed”; and “MSIVVPAYEEAQSLPELADGVRAACEEAGLSFRLWIIDDGSRDETWEVVRGLCEDDPRVAGVRFRRNYGKSAALAVGFDRVQGRYVATMDADLQDDPDEIPALIDKLEEGGHDLVSGWKKDRKDPLRKTLPSRFFNWVTRLFSGLPLHDFNCGLKVYRRPVVKSIDVYGELHRYIPLLAKWEGYDRVAEKEVQHHPRKYGTTKFGVERFIQGFLDLITVVFLTRYAVRPMHFFGSMGTVAFALGFLVSLWLSFDKLVLGHPIGDRPLLLLGVLLILFGSQMFTTGLLGEMIIRPRMEDPSTYEVAEATGLADEAADVLEG”, with “failed”; and “MSIYKDINIASAKPSLKERKNIKHYALDHLNIDEKNNAPLFKTLLEDAMRVSSKEILLIVGGSSFYLKSILEGLSRMPKLSGEEVVKIEREIATLSNPYIFLKSIDPNMAFKIHPNDTYRTHKALEIFYATCTPPSEYFKANPKKPFEHAISLFALSIEKSALHNNIKRRTKNMLHSGLVEEIKALYTQYPKDSQPFKAIGVKESVLFLEKRLTLKELEEAITSNTMKLAKRQNTFNKTQFNNLYVGSAEEVRHAILKHSKSGIKG”, with “failed”.
Regarding “MSKAKAPINTDELKQKYGRVYEIRIEGLEYENGEEAEFVFYFTRPKVSDISRFTKELNSKPDMAMKNLTFSCIVPEQEEELRQAAEEFPGLTFNTASRLMEIVGASAATSLKKL”, the protein production result is “not failed”.
Turning to “MSKDSNKIIEQSREIGISIIMPLYNVEEVILETLESIHEQTFDSYEVLLIDDGSTDKTIEIVTEYIKDKPRFKLYTQPNGGPASARNHGLRLAIGMYICFVDSDDILPNYSLQLMYDGAISTGAKLITGATKRFNSEGEWFIPMHIQYNIAKPGMKTLLKNPELFYSIGPCAKLYHHSLIDGVFFPENIRYGEDQPFVLHALLQAKDIYTVEKVVYYYRLRDGESQSLTQSVDKDPIRILKSVFQIFDYGEEELKKNNTDYELEHHHHHH”, the protein production result was “failed”.
Turning to “MSKENPLKFLGIGSAFNPNYNNTSAYFELEDNLFLIDCGGGIFNSLLSLKLLEKYLHLNVLITHTHPDHIASLGQLILYCYYQLNKKITLIFPQSEIILNLLDYMGIRNDIYILKTPQDFVNYLSKLTVISLEQVHVNELPCFGYLIYLNNVTFYYSGDSKSIPLYILTKFLEGEIDFLFQDTCSENHNHHPHLSIKELSEQIPPSKRKQVYCMHIDEKFDVNLAKNLGFNIPQEIIVERDAK”, the protein production entry is on record as “failed”.
Regarding “MSKGTLFDKVWDLHTVGTLPSGLTQLFIGLHLVHEVTSPQAFAMLRERGLKVLFPERTVATVDHIVPTENQARPFVDRLAEEMIQALEQNCQENNITFYNIGSGNQGIVHVIAPELGLTQPGMTIACGDSHTSSHGAFGAIAFGIGTSQVRDVLASQTLSLSKLKVRKIEVNGTLNPGVYAKDVILHIIRTLGVKGGVGYAYEYAGTTFEQMNMEERMTVCNMAIEGGARCGYVNPDQVTYDYLQGRDFAPQGADWEKAVAWWESIKSDADAEYDDVIVFNAADIPPTVTWGITPGQGIGVNQLIPQPEELLEEDRFVAEEAYRYMDLYPGQPIKGTKIDVCFIGSCTNGRLSDLQEAAKIAKGRHVAEGVKAFVVPGSERVKKAAEAEGLDKIFEAAGFEWREPGCSMCLAMNPDKLEGRQISASSSNRNFKGRQGSASGRTLLMSPAMVATAAIQGEVADVRELL”, the protein production entry was “not failed”.
For “MSKHQRPRILITGAAGALAQQVIRRLRESCDLVAVDFREQVYLGDDIPSYCIDFNKRVFEDLFRRYEFDGVIHLGRILSSQLTRMRRYNANVLGTQKLLDLSHKYGIRRVIVLSTYHVYGAVAYNPALIDESAPLKSAGLSADLVDSVELENLANIYLWRYPELNITILRPCNIVGPGVRNTMSTLLSSERAPVLAGFSPMMQFIHIDDMADAIVAAWAKPVKGVFNVAPQDWVAYQHALKLCGCKTIPIPSIPPSVPKAIARVLNLRSFPPYLMAFFKYPVVIDGRAFAREFGFEPKRPLKEIFRYYRDNKKPV”, the protein production result is “failed”.
With “MSKIWSKEETLWSFALYGTAVGAGTLFLPIQLGSAGAIVLFITALVAWPLTYWPHKALSQFILSANIAPGTGITGAVNHYYGKKIGNLITGLYFLAFFVVVLIYAVAITNSLAEQVAHRTPMTPGLRALLSLGVVLVLNLIFLMGRQVTIKVMGFLVFPLIACFLFLSLYLIRDWHPEHLTSQMQFSPQTLHQVWISIPVMVFAFSHTPIISTFAIDQQEKHGDLAMGKCKKIMKVAYTIICASVLFFVFSCLLAIPATYIETARDQGVTILSALSMVPGAPGWLAVTGIIVAVVAMSKSFLGTYFGVIEGASEIVKSSLGLLGVRKSRAFNRAMSILLVSAFTFAVCFINPNAISMIYAISGPLIAMILFIMPTLSTWLIPALKPYRSVGNAITLVVGLLCVSVMFFG”, the protein production result was “failed”.
Consider “MSKKRIIALILAVVIVLGGIIMSSISAVVSSLFSESTTSDTNPFTEKVEKEGNSSKRIAHLTLNGEITEGTGGGLFGGEGYNHEAFLKQLDNVKKDDSIKGVLLTVNTPGGGTYPSDEIYEKIKEIKQKHKKIYVHMDSMAASGGYYISAPADKIYAGPQTMTGSIGVIMSSIDYSGLQKNLGIKQNVIKSGEHKDILSSSREMTSEERDILQSVLDDSFNRFVNIVKDGRDMPESKVRKLADGRIYSAQQAKSNGLIDEIGYEDQTVKALKKDINAKDAEVFEYSTDGGWFSSMYNVKSSISQFTNEIKDVKSIITNDTKTEPMYLYEGLEHHHHHH”, for which the protein production entry is on record as “failed”.
As for “MSKLAQIVQKLKKQGIEAAVLSDPVSINYLTGFYSDPHERLMFLFLFADQEPLLFLPELDALRAKSILDISVTGYLDFENPLEKIKTLLPKTNYSKIALEFDNLNVTKFKGLETIFSGQFTNLTPLINRMRLIK”, the protein production entry is on record as “failed”.
Next, “MSKLDLHQMTTQDLVALFAKVTVEQDDALLGNQISRFNRLFGVMAEIADELKARDGDQRTALLSLFEYPNMQVRLQAAKLTLAVAPVKAREQLEAIVSSKWFPQAGDAGMCLDLLDDGTFKPK”: “not failed”.
As to “MSKLFPGEVFANTADFDTGIRQLLPRYDEMLEVICRCLPLTSRRILDLGCGTGELSLKILQRCPDAQVIALDYSPRMLKFAQNKIVASGYKERWTGLQADFGDWAINPETLNIGNEFDACVSSLAIHHLYDEMKLQLFQRIAASLTPNGCFWNADPILPESPTLAEIYQAAREEWVSEQGSNFTEVRAKVGDSSPQGYSNPDQLATLDTHLQMLTKSGFTTVAVPWKYYGLAVFGGWVKLEHHHHHH”, the protein production result is “not failed”.
Then “MSKLTLGSYPHMLGFEQLERLLERSAKSGNEGYPPYNIEQTSETSYRITLAVAGFAEADLSITVEDRQLVIRGRQSDDSEGRVFLHRGIAARQFQRMFVLAEGVEVGEAVMENGLLHVDLSRAVPQSVVQTINIRKG”, with “failed”.
Regarding “MSKNNTLSMSPNFFVSGGVLLAIFTLIHLLYAGLIRPAAEVAMAEKGTEALTAFSVIFKDVEQQVCISLMLFCLFLMLYKLWRLIDEEEIYSRDLLESYDKSEALDVDAALNDLESSAYKETPAYSTWINCIRRFKNTKNVQHAADTIESSVDNIAIQLESGNNMIRYIIWAIPSIGFVGTVRGIGSALAQADKALDGDIAGMTASLGVAFNSTLVALFISLILMLFMHLLNSRQDKMVIRTQESCEKHLLSHLHS”, the protein production entry is on record as “failed”.
On to “MSKRMRPSWYRDSPPKQLPYAFVPEEDDDVVILPQVDNSALLGRLQLSLVGRMFHQGGRSTEALLSFLPNIWDVEGRVRGVSLGDSRFQFFFESETDLQKVLNKRPCHFSKWSFALERWKSHIGISFPDTMTFWIKTEGIPTEFWEEEVLRNFGASIGAVRRVDSSKGRLQISVKADVPFRFNKNAQLPNGEVVKVKLFYEKLF”, for which the protein production entry is listed as “failed”.
Then “MSKVALFAGGDLSYISRDFDYFVGIDRGSLFLLENGLPLNMAVGDFDSVSQKAFTDIKEKAELFITAHPEKNDTDTELALKEVFARFPEAEVTIFGAFGGRMDHLLSNIFLPSDPGIAPFMAQIALRDQQNMITYRPAGQHLIHQEEGMTYVAFMAEGEADLTITGAKFELTQDNFFKKKIYSSNAFIHQPITVSLPSGYLIIIQSKDWSLEHHHHHH”, with “not failed”.

The record behind these values is a protein production outcome set (Wang et al. 2014).
